According to publication PMC5072841, “Insights into HIV-1 proviral transcription from integrative structure and dynamics of the Tat:AFF4:P-TEFb:TAR complex” (eLife, 2016):

B1: AFF4 peptide 32-67 (peptide, UniProt Q9UHB7 32-67, looked up)
chain: Ac-SPLFAEPYKVTSKEDKLSSRIQSMLGNYDEMKDFIG-NH2
notes: human AFF4, residues 32-67; also called AFF4_(32-67); synthetic AFF4 peptide (32-67); source: synthetic peptide (University of Utah DNA/Peptide Facility)

Columns and labels:
[1] = tested on: HIV-1 Tat;Cyclin T1 (CycT1, P-TEFb subunit);CDK9 (P-TEFb subunit);AFF4 2-73 WT (HIV-1;human;human;human); test: EMSA; details: EMSA: 100 pM 32P-TAR, 0.009-190 nM Tat:P-TEFb, 5-fold molar excess AFF4 over P-TEFb; buffer and temperature as in Schulze-Gahmen 2014 (not given). SHAPE: RNA …
[2] = tested on: HIV-1 Tat;Cyclin T1 (CycT1, P-TEFb subunit);CDK9 (P-TEFb subunit) (HIV-1;human;human); test: EMSA; details: EMSA: 100 pM 32P-TAR, 0.009-190 nM Tat:P-TEFb, 5-fold molar excess AFF4 over P-TEFb; buffer and temperature as in Schulze-Gahmen 2014 (not given). SHAPE: RNA …
[3] = tested on: HIV-1 Tat;Cyclin T1 (CycT1, P-TEFb subunit);CDK9 (P-TEFb subunit);AFF4 2-73 E61A (HIV-1;human;human;human); test: EMSA; details: EMSA: 100 pM 32P-TAR, 0.009-190 nM Tat:P-TEFb, 5-fold molar excess AFF4 over P-TEFb; buffer and temperature as in Schulze-Gahmen 2014 (not given). SHAPE: RNA …
[4] = tested on: HIV-1 Tat;Cyclin T1 (CycT1, P-TEFb subunit);CDK9 (P-TEFb subunit);AFF4 2-73 K63A (HIV-1;human;human;human); test: EMSA; details: EMSA: 100 pM 32P-TAR, 0.009-190 nM Tat:P-TEFb, 5-fold molar excess AFF4 over P-TEFb; buffer and temperature as in Schulze-Gahmen 2014 (not given). SHAPE: RNA …
[5] = tested on: HIV-1 Tat;Cyclin T1 (CycT1, P-TEFb subunit);CDK9 (P-TEFb subunit);AFF4 2-73 WT (HIV-1;human;human;human); test: EMSA; details: EMSA: 100 pM 32P-TAR, 0.009-190 nM Tat:P-TEFb, 5-fold molar excess AFF4 over P-TEFb; buffer and temperature as in Schulze-Gahmen 2014 (not given). SHAPE: RNA …; remark: listed apart in the source
human cyclin T1 1-264 = molecular target: T1, human cyclin T1 1-264 (human, UniProt O60563 1-264); test: crystal structure; Tat_(1-57):AFF4_(32-67):P-TEFb combined with TAR21 RNA (nucleotides 21-41) at 1:1.3; sitting drops at 18°C; 5.9 Å; molecular replacement with PDB 4OGR; details: both partners purified
T1 construct: human cyclin T1, residues 1-264; also called CycT1; CycT; source: High 5 insect cells, recombinant baculovirus, co-expressed with CDK9 and Tat, purified
T1 sequence (O60563 1-264): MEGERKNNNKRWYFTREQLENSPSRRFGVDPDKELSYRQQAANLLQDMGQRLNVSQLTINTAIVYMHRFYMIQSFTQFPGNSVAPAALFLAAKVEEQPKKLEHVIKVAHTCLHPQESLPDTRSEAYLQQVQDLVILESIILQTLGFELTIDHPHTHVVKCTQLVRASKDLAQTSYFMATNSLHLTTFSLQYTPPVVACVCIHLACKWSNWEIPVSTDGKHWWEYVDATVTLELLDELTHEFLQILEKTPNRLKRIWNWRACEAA

Molecule | Kd [1] [pM] | Kd [2] [pM] | binding signal (fold reduction in affinity vs WT AFF4) [3] | binding signal (fold reduction in affinity vs WT AFF4) [4] | Kd [5] [pM] | binding result (human cyclin T1 1-264)
HIV-1 TAR 18-44 WT | 200 | 19000 | 3 | 2 | 260 | –
B1 | – | – | – | – | – | binds
